Molecular target: Rabbit polyclonal Ab
Assay: ELISA

- Kd: 18.6 nM
B1: phosphorylated HisTAG-ΔPDGFRAaa1-528 (receptor)
chain: QLSLPSILPNENEKVVQLNSSFSLRCFGESEVSWQYPMSEEESSDVEIRNEENNSGLFVTVLEVSSASAAHTGLYTCYYNHTQTEENELEGRHIYIYVPDPDVAFVPLGMTDYLVIVEDDDSAIIPCRTTDPETPVTLHNSEGVVPASYDSRQGFNGTFTVGPYICEATVKGKKFQTIPFNVYALKATSELDLEMEALKTVYKSGETIVVTCAVFNNEVVDLQWTYPGEVKGKGITMLEEIKVPSIKLVYTLTVPEATVKDSGDYECAARQATREVKEMKKVTISVHEKGFIEIKPTFSQLEAVNLHEVKHFVVEVRAYPPPRISWLKNNLTLIENLTEITTDVEKIQEIRYRSKLKLIRAKEEDSGHYTIVAQNEDAVKSYTFELLTQVPSSILDLVDDHHGSTGGQTVRCTAEGTPLPDIEWMICKDIKKCNNETSWTILANNVSNIITEIHSRDRSTVEGRVTFAKVEETIAVRCLAKNLLGAENRELKLVAPTLRSELTVA
modifications: tyrosine-phosphorylated (ectopically, by MAN2A1-FER in HUH7 cells); sites recognised by the antibodies: pY118/pY120, pY342, pY375, pY391

— US20260258142A1 (published 2026)
